T1: beta-lactoglobulin (UniProt P02754 17-178)
T1 sequence: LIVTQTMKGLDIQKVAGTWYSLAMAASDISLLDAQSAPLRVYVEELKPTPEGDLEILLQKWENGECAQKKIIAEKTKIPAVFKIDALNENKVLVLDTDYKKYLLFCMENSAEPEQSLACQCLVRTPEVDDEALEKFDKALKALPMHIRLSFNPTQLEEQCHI

B1: 5'-ATTO 550-LysApt4 (ssDNA)
DNA: CATCCGTCACACCTGCTCTTGTTATTTTTTGTTGATGTAGGTTTGATGATGTATTTCCGGTGTTCGGTCCCGTATC
B2: 5'-ATTO 550-LysApt5 (ssDNA)
DNA: CATCCGTCACACCTGCTCCCTGCTAGAATTTTTCATGATCTTGCTGTATTTCTATTATGGTGTTCGGTCCCGTATC

How the values were obtained:
lysozyme [1] = biological target: T2, lysozyme (hen (egg white), UniProt P00698 19-147); assay: HPTLC-aptastaining; no obvious differences to LysApt5; White wine mimicking buffer: 1.5 mM KCl, 14.5 mM K acetate, 3.5 mM Mg acetate, 1.5 mM Ca acetate, 1 mM NaH2PO4, 4 mM KH2PO4, 11.5% (v/v) ethanol, pH 3.1; room temperature; plates blocked with 0.6% Tween 20; aptamer 5 nM (silica gel, cellulose) or 0.5 nM (RP); conditions: protein: native; label: 5' ATTO 550
T2 sequence (P00698 19-147): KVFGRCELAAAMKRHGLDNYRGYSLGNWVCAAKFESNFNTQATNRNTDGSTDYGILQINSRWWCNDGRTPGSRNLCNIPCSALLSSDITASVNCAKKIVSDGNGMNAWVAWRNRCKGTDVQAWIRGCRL

lysozyme [2] = biological target: T2, lysozyme; assay: HPTLC-aptastaining; RP-18W and silica gel plates; White wine mimicking buffer: 1.5 mM KCl, 14.5 mM K acetate, 3.5 mM Mg acetate, 1.5 mM Ca acetate, 1 mM NaH2PO4, 4 mM KH2PO4, 11.5% (v/v) ethanol, pH 3.1; room temperature; plates blocked with 0.6% Tween 20; aptamer 5 nM (silica gel, cellulose) or 0.5 nM (RP); conditions: protein: native; label: 5' ATTO 550
beta-lactoglobulin = biological target: T1, beta-lactoglobulin; assay: as above; conditions: protein: native; chain copies: 2; label: 5' ATTO 550

Row | Binder | binding result (lysozyme [1]) | binding result (lysozyme [2]) | binding result (beta-lactoglobulin)
1 | B1 | binds | – | –
2 | B2 | – | binds | no binding

From article PMC4879557, “HPTLC-aptastaining – Innovative protein detection system for high-performance thin-layer chromatography”
